2 molecules from article PMC10557602 (bioRxiv, 2023) can be followed below.

The experiment addresses SARS-CoV-2 nsp12 (SARS-CoV-2, UniProt P0DTD1). Nature of the experiment: cryo-EM structure.

B1: SARS-CoV-2 nsp9 (natural protein)
chain: NNELSPVALRQMSCAAGTTQTACTDDNALAYYNTTKGGRFVLALLSDLQDLKWARFPKSDGTGTIYTELEPPCRFVTDTPKGPKVKYLYFIKGLNNLNRGMVLGSLAATVRLQ
Regarding B1, the binding result is listed as “binds”.

B2: RNAylated-nsp9 (20mer RNA) (natural protein)
chain: B1 chain
For the molecule B2, the binding result is on record as “binds”.
